Measurements from PMC12303382.

Target: Clostridioides difficile transferase B component, CDTb_(45-876), activated with trypsin (Clostridioides difficile) (UniProt O32739)
Assay: SDS-PAGE of SDS-resistant oligomers

Substance: Clostridioides difficile transferase B component, CDTb_(45-876), activated with trypsin (from UniProt O32739 45-876) (natural protein)
- fold enhancement of oligomerization with 2.5 M ethanol over water: 7.5 fold
